Test results published in the RNAGym collection of RNA variant scans (doi:10.1073/pnas.2313332121).

B1: TPR t1 (parent)
chain: GACCAAUCUGCCCUCAGAGCUCGAGAACAUCUUCGGAUGCAGAGGAGGCAGGCUUCGGUGGCGCGAUAGCGCCAACGUCCUCAACCUCCAAUGCAUCCCACCACAUGAUGAUGCCUGAAGAGCCUUGGUUUUUUG

Variants of: B1
Test: polymerase ribozyme fitness, log enrichment relative to wild type (log ratio); higher = more active; in vitro selection for triplet polymerase activity
Outline: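 Mutant libraries for each subunit of a heterodimeric triplet polymerase ribozyme were made by PCR and then transcribed. Each library underwent one round of in vitro selection in triplicate: annealing with a biotinylated primer, the partner subunit and triplets, frozen incubation at −7 °C, gel excision of extended constructs, streptavidin-bead capture and RT-PCR. Input and output libraries were Illumina-sequenced, and only genotypes with ≥10 input reads and ≥1 read per output were kept. Fitness is the logarithm, base 2, of genotype enrichment over wild-type enrichment, computed from inverse-variance-weighted replicate averages.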

**Q.** For GACCAAUCUGCCCUCAGAGCUCGAGAACAUCUUCGGAUGCAGAGGAGGCAGGCUUGGGUGGCGCGAUAGCGUCAACGUCCUCAACCUCCAAUGCAUCCCACCACAUGAUGAUGCCUGAAGAGCUUUGGUUUUUUG, which “polymerase ribozyme fitness (log ratio)” value is on record?
**A.** Its value is -0.654.

**Q.** With GACCAAUCUGCCCUCAGAGCUCGAGAACAUCUUCGGAUGCAGAGGAGGCAGGCUUAGGUGGCGCGAUAGCGCCAACGUCCUCAACCGCCAAUGCAUCCCACCACAUGAUGAUUCCUGAAGAGCCUUGGUUUUUUG as the variant, how does the “polymerase ribozyme fitness (log ratio)” value read?
**A.** Its value is -3.92.

**Q.** Which “polymerase ribozyme fitness (log ratio)” value does the source give for GACCAAUCUGCCCUCAGAGCUCGAGAACAUCUUCGGAUGCAGAGGAGGCAGGCUUGGGUGGCGCGAUAGCGCCAACGUCCUCAACCUCCAAUGCAUCCCAUCACAUGAUGAUGCCUGAAAAGCCUUGGUUUUUUG here?
**A.** The value was -0.227.

**Q.** With GACCAAUCUGCCCUCAGAGCUCGAGAACAUCUUCGGAUGCAGAGGAGGCAGGCUUGGGUGGCGCGAUAGCGCUAACGUCCUCAACCUCCAAUGCAUCCCACCACAUGAUGAUGCCUGAAGAGCCUUGGUUUUUUG as the variant, how does the “polymerase ribozyme fitness (log ratio)” value read?
**A.** Its value is -0.89.

**Q.** With GACCAAUCUGCCCUCAGAGCUCGAGAACAUCUUCGGAUGCAGAGGAGGCAGGCUUAGGUGGCGCGAUAGCGCCAACGUCCUCAACCUCCAAUGCAUCCCACCACAUGAUGAAGCCUGAAAAGCCUUGGUUUUUUU as the variant, how does the “polymerase ribozyme fitness (log ratio)” value read?
**A.** The value was -2.22.

**Q.** Which “polymerase ribozyme fitness (log ratio)” value does the source give for GACCAAUCUGCCCUCAGAGCUCGAGAACAUCUUCGGAUGCAGAGGAGGCAGGCUUAGGUGGCGCGAUAGCGCCAACGUCCUCAACCACCAAUGCAUCCCACCACAAGAUGAUGCCUGAAGAGCCUUGGUUUUUUG here?
**A.** The value was -0.176.

**Q.** Which “polymerase ribozyme fitness (log ratio)” value does the source give for GACCAAUCUGCCCUCAGAGCUCGAGAACAUCUUCGGAUGCAGAGGAGGCAGGCUUAGGUGGCGCGAUAGCGCCAACGUCCUCAACCUCCAAUGCAUCCCACCACAGGAUCAUGCCUGAAGAGCCUUGGUUUUUUG here?
**A.** Its value is -5.41.

**Q.** With GACCAAUCUGCCCUCAGAGCUCGAGAACAUCUUCGGAUGCAGAGGAGGCAGGCUUGGGUGGCGCGAUAGCGCCAACGUCCUCAACCUCCAAUGCGUCCCACCACAUGAUGAUGCCUGAAGAGCCUUGGUUUUUUG as the variant, how does the “polymerase ribozyme fitness (log ratio)” value read?
**A.** The value was -1.22.

**Q.** With GACCAAUCUGCCCUCAGAGCUCGAGAACAUCUUCGGAUGCAGAGGAGGCAGGCUUGGGUGGCGCGAUGGCGCUAACGUCCUCAACCUCCAAUGCGUCCCACCACAUGAUGAUGCCUGAAGAGCCUUGGUUUUUUG as the variant, how does the “polymerase ribozyme fitness (log ratio)” value read?
**A.** The value was -3.3.

**Q.** Which “polymerase ribozyme fitness (log ratio)” value does the source give for GACCAAUCUGCCCUCAGAGCUCGAGAACAUCUUCGGAUGCAGAGGAGGCAGGCUUGGGUGGCGCGAUAGUGCCAACGUCCUCAACCUCCAAUGCAGCCCAUCACAUGAUGUUGCCUGAAGAGCCUUGGUUUUUUG here?
**A.** Its value is -5.15.

**Q.** With GACCAAUCUGCCCUCAGAGCUCGAGAACAUCUUCGGAUGCAGAGGAGGCAGGCUUGGGUGGUGCGAUAGCGCCAACGUCCUCAACCUCCAAUGCAUCCCACCACAAGAUUAUGCCUGAAGAGCCUUGGUUUUUUG as the variant, how does the “polymerase ribozyme fitness (log ratio)” value read?
**A.** The value was -0.758.

**Q.** Which “polymerase ribozyme fitness (log ratio)” value does the source give for GACCAAUCUGCCCUCAGAGCUCGAGAACAUCUUCGGAUGCAGAGGAGGCAGGCUUGGGUGGCGCGAUAGCGUCAACGUCCUCAACCUCCAAUGCAUCCCACCACAUGAUGAUGCCUGAAGAGCCUUGGUAUUUUG here?
**A.** Its value is -1.31.

**Q.** With GACCAAUCUGCCCUCAGAGCUCGAGAACAUCUUCGGAUGCAGAGGAGGCAGGCUUGGGUGGCGCGAUAGCGACAACGUCCUCAACCUCCAAUGCAUCCCACCACAUGAUGAUGCCUGAAGAGCCUUGGUUUUUUG as the variant, how does the “polymerase ribozyme fitness (log ratio)” value read?
**A.** Its value is -2.48.

**Q.** Which “polymerase ribozyme fitness (log ratio)” value does the source give for GACCAAUCUGCCCUCAGAGCUCGAGAACAUCUUCGGAUGCAGAGGAGGCAGGCUUGGGUGGCGAGAUAGCGCCAACGUCCUCAACCUCCAAUGCAUCCCACCACACGAUGAUGUCUGAAGAGCCUUGGUUUUUUG here?
**A.** Its value is -6.98.

**Q.** With GACCAAUCUGCCCUCAGAGCUCGAGAACAUCUUCGGAUGCAGAGGAGGCAGGCUUGGGUGGCGCGAUAGCGCCAACGUCCUCAACCUCCAAUGCAUCCCUCCACAUGAUGAUGCCUGAAGAGCCUUGGUUUUUUG as the variant, how does the “polymerase ribozyme fitness (log ratio)” value read?
**A.** Its value is -0.785.

**Q.** Which “polymerase ribozyme fitness (log ratio)” value does the source give for GACCAAUCUGCCCUCAGAGCUCGAGAACAUCUUCGGAUGCAGAGGAGGCAGGCUUAGGUGGCGCGAUAGCGCCAACGUCCUCAACCUCCAAUGCAUCCCACCACAUGAUGAUGCCUGAAGAGCCUUGUUUUUUUG here?
**A.** Its value is -2.53.

**Q.** Which “polymerase ribozyme fitness (log ratio)” value does the source give for GACCAAUCUGCCCUCAGAGCUCGAGAACAUCUUCGGAUGCAGAGGAGGCAGGCUUGGGUGGCGCGAUGGCGCCAACGUCCUCAACCUCCAAUGCAUCCCACCACAUGAUGAUGCCUGAAGAGCCUUGGUUUUUUG here?
**A.** The value was -3.1.

**Q.** For GACCAAUCUGCCCUCAGAGCUCGAGAACAUCUUCGGAUGCAGAGGAGGCAGGCUUGGGUGGCGCGCUAGCGCCAACGUCCUCAACCUCCAAUGCAUCCCACCACAUGAUGAUGCCUGAAGAGCCUUGGUUUUUUG, which “polymerase ribozyme fitness (log ratio)” value is on record?
**A.** Its value is -1.08.

**Q.** With GACCAAUCUGCCCUCAGAGCUCGAGAACAUCUUCGGAUGCAGAGGAGGCAGGCUUGUGUGGCUCGAUAGCGCCAACGUCCUCAACCUCCAAUGCAUCCCACCACAUGAUGAUGCCUGAAGAGCCUUGGUUUUUUG as the variant, how does the “polymerase ribozyme fitness (log ratio)” value read?
**A.** The value was -3.14.

**Q.** With GACCAAUCUGCCCUCAGAGCUCGAGAACAUCUUCGGAUGCAGAGGAGGCAGGCUUGGGUGGCGCGAUAGCGCCAACGUCCUCAACUUCCAAUGCAUCCCACCACAUGAUGAAGCCUGGGGAGCCUUGGUUUUUUG as the variant, how does the “polymerase ribozyme fitness (log ratio)” value read?
**A.** Its value is 1.32.

**Q.** Which “polymerase ribozyme fitness (log ratio)” value does the source give for GACCAAUCUGCCCUCAGAGCUCGAGAACAUCUUCGGAUGCAGAGGAGGCAGGCUUGGGUGGCGCGAUAGCGCCAACGUCCUCAACCUCCAAUGCAUCCCAUCACAUGAUGAUGCCUGAAGAGCCUUGGUUUUUUG here?
**A.** The value was -0.0823.
